# Assay results from the supplement of paper PMC10567573.
# B1: PLAGL1 (parent)
# chain: TKEKKHQCDHCERCFYTRKDVRRH
# Variants of: B1
# Assay: protein stability index of a GFP-peptide fusion (GPS, HEK-293T) (PSI 1-6); higher = more stable
# Details: c terminus: a fixed tail appended
# 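Also: lentivirally expressed fusions sorted by FACS into six bins by GFP to DsRed ratio, PSI derived from sequencing read proportions per bin multiplied by bin number.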
row,Variant,protein stability index
1,TKEKKHQCDHCERCFYTRKNVRRH [D20N],3.37
2,TKEKKHQCDHCERCFYTRKEVRRH [D20E],3.96
3,TKEKKHQCDHCERCFYTRKIVRRH [D20I],2.65
4,TKEKKHQCDHCERCFYTRKFVRRH [D20F],3.14
5,TKEKKHQCDHCERCFYTRKWVRRH [D20W],3.03
6,TKEKKHQCDHCERCFYTRKGVRRH [D20G],3.21
7,TKEKKHQCDHCERCFYTRKLVRRH [D20L],3.14
8,TKEKKHQCDHCERCFYTRKTVRRH [D20T],2.96
9,TKEKKHQCDHCERCFYTRKPVRRH [D20P],3.1
10,TKEKKHQCDHCERCFYTRKYVRRH [D20Y],3.28
11,TKEKKHQCDHCERCFYTRKQVRRH [D20Q],3.43
12,TKEKKHQCDHCERCFYTRKSVRRH [D20S],3.22
13,TKEKKHQCDHCERCFYTRKRVRRH [D20R],3.84
14,TKEKKHQCDHCERCFYTRKCVRRH [D20C],3.02
15,TKEKKHQCDHCERCFYTRKKVRRH [D20K],3.29
16,TKEKKHQCDHCERCFYTRKAVRRH [D20A],3.61
17,TKEKKHQCDHCERCFYTRKMVRRH [D20M],3.44
18,TKEKKHQCDHCERCFYTRKHVRRH [D20H],3.43
19,TKEKKHQCDHCERCFYTRKVVRRH [D20V],3.71
20,TKEKKHQCDHCERCFNTRKDVRRH [Y16N],4.2
21,TKEKKHQCDHCERCFTTRKDVRRH [Y16T],3.58
22,TKEKKHQCDHCERCFHTRKDVRRH [Y16H],3.46
23,TKEKKHQCDHCERCFITRKDVRRH [Y16I],3.18
24,TKEKKHQCDHCERCFQTRKDVRRH [Y16Q],3.88

row,Variant,protein stability index
1,TKEKKHQCDHCERCFSTRKDVRRH [Y16S],3.63
2,TKEKKHQCDHCERCFWTRKDVRRH [Y16W],3.26
3,TKEKKHQCDHCERCFKTRKDVRRH [Y16K],3.14
4,TKEKKHQCDHCERCFPTRKDVRRH [Y16P],3.13
5,TKEKKHQCDHCERCFGTRKDVRRH [Y16G],3.79
6,TKEKKHQCDHCERCFRTRKDVRRH [Y16R],4
7,TKEKKHQCDHCERCFMTRKDVRRH [Y16M],3.75
8,TKEKKHQCDHCERCFCTRKDVRRH [Y16C],3.74
9,TKEKKHQCDHCERCFETRKDVRRH [Y16E],4.19
10,TKEKKHQCDHCERCFLTRKDVRRH [Y16L],3.4
11,TKEKKHQCDHCERCFDTRKDVRRH [Y16D],4.12
12,TKEKKHQCDHCERCFFTRKDVRRH [Y16F],3.58
13,TKEKKHQCDHCERCFATRKDVRRH [Y16A],4.02
14,TKEKKHQCDHCERCFVTRKDVRRH [Y16V],3.75
15,TKEKKHQCDHCERCFYTRKDVREH [R23E],4.26
16,TKEKKHQCDHCERCFYTRKDVRNH [R23N],4.01
17,TKEKKHQCDHCERCFYTRKDVRYH [R23Y],3.53
18,TKEKKHQCDHCERCFYTRKDVRVH [R23V],3.08
19,TKEKKHQCDHCERCFYTRKDVRFH [R23F],3.33
20,TKEKKHQCDHCERCFYTRKDVRSH [R23S],3.7
21,TKEKKHQCDHCERCFYTRKDVRLH [R23L],3.92
22,TKEKKHQCDHCERCFYTRKDVRPH [R23P],4.04
23,TKEKKHQCDHCERCFYTRKDVRCH [R23C],3.49
24,TKEKKHQCDHCERCFYTRKDVRWH [R23W],3.08

row,Variant,protein stability index
1,TKEKKHQCDHCERCFYTRKDVRQH [R23Q],3.84
2,TKEKKHQCDHCERCFYTRKDVRGH [R23G],4.31
3,TKEKKHQCDHCERCFYTRKDVRHH [R23H],3.85
4,TKEKKHQCDHCERCFYTRKDVRTH [R23T],3.71
5,TKEKKHQCDHCERCFYTRKDVRKH [R23K],4.27
6,TKEKKHQCDHCERCFYTRKDVRMH [R23M],3.79
7,TKEKKHQCDHCERCFYTRKDVRDH [R23D],4.49
8,TKEKKHQCDHCERCFYTRKDVRAH [R23A],4.13
9,TKEKKHQCDHCERCFYTRKDVRIH [R23I],3.67
10,TKEKKHQCDHCERCFYTRKDQRRH [V21Q],3.25
11,TKEKKHQCDHCERCFYTRKDRRRH [V21R],3.95
12,TKEKKHQCDHCERCFYTRKDERRH [V21E],3.9
13,TKEKKHQCDHCERCFYTRKDMRRH [V21M],3.52
14,TKEKKHQCDHCERCFYTRKDCRRH [V21C],3.85
15,TKEKKHQCDHCERCFYTRKDHRRH [V21H],3.7
16,TKEKKHQCDHCERCFYTRKDDRRH [V21D],3.53
17,TKEKKHQCDHCERCFYTRKDIRRH [V21I],3.25
18,TKEKKHQCDHCERCFYTRKDYRRH [V21Y],3.98
19,TKEKKHQCDHCERCFYTRKDSRRH [V21S],3.01
20,TKEKKHQCDHCERCFYTRKDNRRH [V21N],3.54
21,TKEKKHQCDHCERCFYTRKDPRRH [V21P],2.97
22,TKEKKHQCDHCERCFYTRKDARRH [V21A],3.68
23,TKEKKHQCDHCERCFYTRKDKRRH [V21K],3.88
24,TKEKKHQCDHCERCFYTRKDWRRH [V21W],3.58

row,Variant,protein stability index
1,TKEKKHQCDHCERCFYTRKDFRRH [V21F],3.47
2,TKEKKHQCDHCERCFYTRKDTRRH [V21T],3.34
3,TKEKKHQCDHCERCFYTRKDLRRH [V21L],3.74
4,TKEKKHQCDHCERCFYTRKDGRRH [V21G],3.65
5,TKEKKHQCDHCERCFYTRYDVRRH [K19Y],3.25
6,TKEKKHQCDHCERCFYTRADVRRH [K19A],3.66
7,TKEKKHQCDHCERCFYTRPDVRRH [K19P],3.33
8,TKEKKHQCDHCERCFYTRVDVRRH [K19V],2.95
9,TKEKKHQCDHCERCFYTRGDVRRH [K19G],3.52
10,TKEKKHQCDHCERCFYTRDDVRRH [K19D],3.39
11,TKEKKHQCDHCERCFYTRQDVRRH [K19Q],3.89
12,TKEKKHQCDHCERCFYTRIDVRRH [K19I],2.52
13,TKEKKHQCDHCERCFYTRSDVRRH [K19S],3.17
14,TKEKKHQCDHCERCFYTRLDVRRH [K19L],2.9
15,TKEKKHQCDHCERCFYTRRDVRRH [K19R],4.12
16,TKEKKHQCDHCERCFYTRWDVRRH [K19W],3.13
17,TKEKKHQCDHCERCFYTREDVRRH [K19E],4.03
18,TKEKKHQCDHCERCFYTRNDVRRH [K19N],3.3
19,TKEKKHQCDHCERCFYTRTDVRRH [K19T],3.4
20,TKEKKHQCDHCERCFYTRFDVRRH [K19F],3.05
21,TKEKKHQCDHCERCFYTRMDVRRH [K19M],3.06
22,TKEKKHQCDHCERCFYTRCDVRRH [K19C],3.22
